IC50 and Kd data for 24 sequences are collected here from the Immune Epitope Database (IEDB).

In one assay the target is HLA-A*24:02. Description: IEDB peptide-MHC binding, purified MHC/competitive/fluorescence; ≥ and ≤ were set here for values at or beyond the usual limits of such assays.
A further assay addresses HLA-A*30:01. The experiment in a line: IEDB peptide-MHC binding, purified MHC/competitive/radioactivity; filed as Kd, often an IC50 or EC50 that approximates it; ≥ and ≤ were set here for values at or beyond the usual limits of such assays.
The target of the next assay is HLA-A*31:01. The experiment in a line: IEDB peptide-MHC binding, purified MHC/direct/fluorescence; filed as Kd, often an IC50 or EC50 that approximates it; ≥ and ≤ were set here for values at or beyond the usual limits of such assays.
Assay [1] deals with HLA-A*03:01. The description is as above.
A further assay concerns the target HLA-A*01:01. The experiment in a line: IEDB peptide-MHC binding, purified MHC/competitive/radioactivity; filed as Kd, often an IC50 or EC50 that approximates it; ≥ and ≤ were set here for values at or beyond the usual limits of such assays.
The target of the next assay is HLA-A*30:02. Described as above.
Another assay concerns the target HLA-A*32:01. The assay is described as above.
The next assay has as its target HLA-A*26:01. The assay is described as above.
The target in another assay is HLA-A*29:02. The description is as above.
Another assay deals with HLA-A*68:01. The description is as above. The following applies: source organism: SARS coronavirus Tor2.
The target of a further assay is HLA-A*33:01. Described as above. To be noted: source organism: SARS coronavirus Tor2.
The target in assay [2] is HLA-A*02:01. The experiment in a line: IEDB peptide-MHC binding, purified MHC/competitive/fluorescence; ≥ and ≤ were set here for values at or beyond the usual limits of such assays.
A further assay deals with HLA-B*15:01. The experiment in a line: IEDB peptide-MHC binding, purified MHC/direct/fluorescence; filed as Kd, often an IC50 or EC50 that approximates it; ≥ and ≤ were set here for values at or beyond the usual limits of such assays.
Assay [3] addresses HLA-A*02:01. The assay is described as above.
Assay [4] addresses HLA-A*03:01. The experiment in a line: IEDB peptide-MHC binding, purified MHC/competitive/radioactivity; filed as Kd, often an IC50 or EC50 that approximates it; ≥ and ≤ were set here for values at or beyond the usual limits of such assays. The following applies: source organism: Dengue virus 4 Philippines/H241/1956.
For a further assay, the target named is HLA-A*69:01. The experiment in a line: IEDB peptide-MHC binding, purified MHC/direct/fluorescence; filed as Kd, often an IC50 or EC50 that approximates it; ≥ and ≤ were set here for values at or beyond the usual limits of such assays. To be noted: source organism: Rickettsia conorii.
The next assay addresses HLA-B*58:01. The assay is described as above. To be noted: source organism: Rickettsia conorii.
In another assay the target is HLA-A*11:01. The assay is described as above. The following applies: source organism: Rickettsia conorii.
[5] abbreviates: source organism: Zaire ebolavirus.
[6] abbreviates: source organism: Vaccinia virus WR.
Where [7] appears, read: source organism: Dengue virus 3 Martinique/1243/1999.
[8] abbreviates: source organism: Giardia lamblia ATCC 50803.
[9] abbreviates: source organism: Mammarenavirus tacaribeense.
Setting [10] is: source organism: Sudan ebolavirus.
[11] abbreviates: source organism: Mammarenavirus juninense.
[12] abbreviates: source organism: Mammarenavirus brazilense.
Setting [13] is: source organism: Haemophilus influenzae.
Setting [14] is: source organism: Vaccinia virus.
[15] abbreviates: source organism: Rickettsia conorii.

Consider VDNLTYVQL, for which, in the assay with HLA-A*24:02 (setting [5]), the half-inhibitory concentration (IC50) – broadly, the concentration that inhibits the measured activity by half – was at least 117000 nM.
For ASKTINALV, the equilibrium dissociation constant (Kd) (in general, the concentration at which binding is half-saturated) with HLA-A*30:01 (setting [6]) stood at 0.175 nM.
On the same count and under the same terms, the figure for HIKNDFMIK is 1.6 nM.
With AVSRGSAKLQ, the Kd with HLA-A*30:01 (setting [7]) was found to be 1290 nM.
On to MNQERRSLR, for which the dissociation constant Kd with HLA-A*31:01 (setting [8]) is 118 nM; with HLA-A*03:01 [1] (setting [8]), at least 20000 nM.
As for HYDQKLGSY, the dissociation constant Kd was 11000 nM with HLA-A*01:01 (setting [9]); 5540 nM in the assay with HLA-A*30:01 (setting [9]); 89.8 nM with HLA-A*30:02 (setting [9]); 19400 nM with HLA-A*32:01 (setting [9]); at least 36000 nM in the assay with HLA-A*26:01 (setting [9]); at least 20300 nM with HLA-A*29:02 (setting [9]).
Consider RFRFRSVYG, for which the Kd in the assay with HLA-A*30:01 (setting [6]) is 0.357 nM.
For the sequence AVDPAKAYK, the dissociation constant Kd with HLA-A*31:01 (source organism: SARS-CoV1) turned out to be 293 nM; with HLA-A*68:01, 553 nM; with HLA-A*33:01, 3420 nM.
For the sequence GILPWTKIS, the IC50 in the assay with HLA-A*24:02 (setting [6]) is at least 133000 nM; in the assay with HLA-A*02:01 [2] (setting [6]), 17200 nM.
With MEGLSLLQL, the concentration for half-maximal inhibition (IC50) with HLA-A*24:02 (setting [10]) was 22300 nM; in the assay with HLA-A*02:01 [2] (setting [10]), at least 88900 nM.
In the case of SVIGTFVAEF, the equilibrium dissociation constant (Kd) was 3580 nM with HLA-A*01:01 (setting [11]); 2420 nM in the assay with HLA-A*30:01 (setting [11]); 110 nM with HLA-A*30:02 (setting [11]); 195 nM with HLA-A*32:01 (setting [11]); 3.37 nM with HLA-A*26:01 (setting [11]); 169 nM with HLA-A*29:02 (setting [11]).
For the sequence MSRRYSREK, the dissociation constant Kd with HLA-A*30:01 (setting [6]) is 1.31 nM.
As for HTASGEHSL, the dissociation constant (Kd) is at least 25100 nM with HLA-A*01:01 (setting [12]); 8480 nM with HLA-A*30:01 (setting [12]); 5640 nM with HLA-A*30:02 (setting [12]); 11900 nM with HLA-A*32:01 (setting [12]); 16500 nM with HLA-A*26:01 (setting [12]); at least 78900 nM with HLA-A*29:02 (setting [12]).
With VTEIGRVPSH, the Kd in the assay with HLA-A*30:01 (setting [7]) is at least 22900 nM.
For WFNYLFGGF, the half-inhibitory concentration (IC50) in the assay with HLA-A*24:02 (source organism: Variola virus) was 484 nM; in the assay with HLA-A*02:01 [2] (source organism: Variola virus), at least 104000 nM.
On to RMGVKSQLL, for which the Kd is 2070 nM with HLA-A*31:01 (setting [13]), 1280 nM in the assay with HLA-B*15:01 (setting [13]), 18000 nM in the assay with HLA-A*03:01 [1] (setting [13]) and 3130 nM with HLA-A*02:01 [3] (setting [13]).
Consider NHALSELPET, for which, in the assay with HLA-A*30:01 (source organism: Dengue virus 2 Jamaica/1409/1983), the Kd turned out to be 1240 nM.
In the case of CLRRRVTRK, the values for the equilibrium dissociation constant (Kd) with HLA-A*30:01 (source organism: Dengue virus 4 Philippines/H241/1956) and with HLA-A*03:01 [4] were 3140 nM and 2.7 nM, respectively.
For DFQESADSF, in the assay with HLA-A*24:02 (setting [5]), the IC50 came out at 55000 nM.
As to NIGNTKSNI, the half-inhibitory concentration (IC50) in the assay with HLA-A*24:02 (setting [14]) is at least 176000 nM; in the assay with HLA-A*02:01 [2] (setting [14]), at least 662000 nM.
In the case of LGVIHNSTL, the figures for the IC50 in the assay with HLA-A*24:02 (setting [5]) and with HLA-A*02:01 [2] (setting [5]) were 50900 nM and 69100 nM, respectively.
Consider KAKEMNALS, for which the equilibrium dissociation constant (Kd) in the assay with HLA-A*30:01 (setting [6]) came out at 50.5 nM.
On the same count and under the same terms, to SIRRNLALK belongs 12.4 nM.
In the case of KLNENIIRF, the dissociation constant Kd with HLA-A*31:01 (setting [15]) is 1280 nM; with HLA-B*15:01 (setting [15]) it was 152 nM; in the assay with HLA-A*69:01, 4750 nM; with HLA-A*03:01 [1] (setting [15]) it was 554 nM; with HLA-B*58:01, 68.6 nM; with HLA-A*02:01 [3] (setting [15]) it was 1880 nM. The sequence further had a Kd with HLA-A*11:01 of 5910 nM.
